Laboratory results from publication PMC11415702.

Target: Complement factor H (CFH) (human, UniProt P08603 19-1231)
Assay: interdigitated electrode current-volt sandwich assay

Complement factor H (CFH), sequence (P08603 19-1231): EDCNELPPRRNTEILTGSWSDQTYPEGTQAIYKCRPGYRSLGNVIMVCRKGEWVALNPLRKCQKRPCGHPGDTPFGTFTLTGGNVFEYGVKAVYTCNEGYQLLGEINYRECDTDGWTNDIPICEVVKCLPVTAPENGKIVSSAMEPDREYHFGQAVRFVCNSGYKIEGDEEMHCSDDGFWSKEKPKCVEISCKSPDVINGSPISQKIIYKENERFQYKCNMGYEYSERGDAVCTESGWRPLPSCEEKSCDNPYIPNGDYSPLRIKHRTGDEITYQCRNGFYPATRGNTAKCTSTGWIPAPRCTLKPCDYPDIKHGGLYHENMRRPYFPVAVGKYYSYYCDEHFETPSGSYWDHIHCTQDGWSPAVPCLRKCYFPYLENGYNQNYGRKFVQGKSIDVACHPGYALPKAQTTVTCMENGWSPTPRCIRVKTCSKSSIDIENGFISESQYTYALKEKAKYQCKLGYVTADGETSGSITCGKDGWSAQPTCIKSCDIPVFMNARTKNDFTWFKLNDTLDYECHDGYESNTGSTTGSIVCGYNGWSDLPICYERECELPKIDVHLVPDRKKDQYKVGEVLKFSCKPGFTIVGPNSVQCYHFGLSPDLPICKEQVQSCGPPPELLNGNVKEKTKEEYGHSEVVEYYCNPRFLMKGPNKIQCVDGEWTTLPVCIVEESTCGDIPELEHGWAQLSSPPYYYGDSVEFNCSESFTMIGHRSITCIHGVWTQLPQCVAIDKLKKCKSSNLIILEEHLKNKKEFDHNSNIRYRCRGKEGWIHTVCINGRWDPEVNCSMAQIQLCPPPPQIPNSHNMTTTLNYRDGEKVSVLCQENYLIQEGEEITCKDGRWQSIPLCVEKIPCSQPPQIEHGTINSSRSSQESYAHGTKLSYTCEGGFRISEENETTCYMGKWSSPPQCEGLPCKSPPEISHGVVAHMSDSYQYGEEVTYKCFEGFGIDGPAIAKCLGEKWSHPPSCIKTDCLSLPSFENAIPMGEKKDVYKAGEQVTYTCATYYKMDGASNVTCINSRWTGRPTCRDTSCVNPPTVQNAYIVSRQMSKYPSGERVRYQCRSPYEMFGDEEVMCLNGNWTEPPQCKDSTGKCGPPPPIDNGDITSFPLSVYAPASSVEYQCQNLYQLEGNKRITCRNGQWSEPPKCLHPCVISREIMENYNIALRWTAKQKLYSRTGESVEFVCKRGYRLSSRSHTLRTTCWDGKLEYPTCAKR

GCGGAGCGTGGCAGG (ssDNA, biotin (end not stated)) [anti-tau DNA aptamer]
binding result: no binding
